Results: PMC8024337

Target: Ror2-mCherry (xRor2-mCherry in pCS2+)
Assay: fluorescence cross-correlation spectroscopy (FCCS); plasma membrane of live PAC2 cells expressing GFP-Vangl2 and Ror2-mCherry; untreated control (no Wnt protein added); laser spot scanned across the membrane for 16 s; diffusion with triplet fit

KD without m3 or m4 (untreated control): > 1100 nM
Substance: GFP-Vangl2 (meGFP-Vangl2 in pcDNA3.1) (from UniProt Q8UVJ6 1-526) (natural protein)
